For experiment [1], the target named is T1, recombinant human soluble ECD of hCD16a/FCGRIIIA (human, UniProt P08637 17-208).
T1 construct: extracellular domain; also called FcγRIIIa
Put plainly: ELISA: plate coated with recombinant human CD16a/FCGRIIIA ECD, antibody titrated 0.005-80 ug/ml, HRP goat anti-human Fc, OD650.
Procedure: FcγRIIIa binding was evaluated using an enzyme linked immunoassay (ELISA). Briefly, 96-well ELISA plates were coated with of recombinant human soluble ECD of hCD16a/[sequence] (Sino Biological, Inc, Beijing, China) in 1×PBS (pH7.4) coating buffer. Subsequently the plates were washed and blocked with ELISA blocking buffer. […] After washing to remove unbound antibodies, the bound antibodies were detected with horseradish peroxidase (HRP) conjugated goat anti-human Fc-specific polyclonal antibody (Jackson ImmunoResearch, West Grove, Pa.). After washing to remove unbound detection antibody, a slow kinetic substrate solution of tetramethylbenzidine (TMB) was added to the wells where color develops in proportion to the amount of testing samples. The optical density (OD) of the color was measured at 650 nm and was used for determination of the amount of testing samples bound to FcγRIIa. Detectable binding of antibodies over the range of test concentrations was analyzed using the one-site binding, nonlinear regression analysis with GraphPad Prism.

Experiment [2] deals with human C1q (sigma Cat #C1740) (human, UniProt P02745 23-245; P02746 28-253; P02747 29-245). Put plainly: ELISA: plate coated with antibody at 1 ug/ml, human C1q titrated 0.625-40 ug/ml, rabbit anti-human C1q then HRP goat anti-rabbit, OD650.
Sequence of human C1q (sigma Cat #C1740) (P02745 23-245 limits assumed, chain 1 of 3): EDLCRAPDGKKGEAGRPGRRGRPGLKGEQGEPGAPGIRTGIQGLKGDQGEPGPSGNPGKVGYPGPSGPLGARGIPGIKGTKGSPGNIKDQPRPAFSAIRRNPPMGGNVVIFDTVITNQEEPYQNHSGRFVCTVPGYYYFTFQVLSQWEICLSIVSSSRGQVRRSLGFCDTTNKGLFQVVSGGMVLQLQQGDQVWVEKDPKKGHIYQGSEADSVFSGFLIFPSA
Sequence of human C1q (sigma Cat #C1740) (P02746 28-253 limits assumed, chain 2 of 3): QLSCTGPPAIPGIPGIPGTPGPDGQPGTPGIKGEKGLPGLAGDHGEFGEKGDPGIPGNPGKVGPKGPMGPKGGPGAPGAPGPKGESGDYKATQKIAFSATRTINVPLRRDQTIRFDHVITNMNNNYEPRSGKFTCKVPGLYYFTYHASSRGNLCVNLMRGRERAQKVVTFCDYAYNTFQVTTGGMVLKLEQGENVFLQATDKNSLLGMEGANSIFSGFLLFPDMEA
Sequence of human C1q (sigma Cat #C1740) (P02747 29-245 limits assumed, chain 3 of 3): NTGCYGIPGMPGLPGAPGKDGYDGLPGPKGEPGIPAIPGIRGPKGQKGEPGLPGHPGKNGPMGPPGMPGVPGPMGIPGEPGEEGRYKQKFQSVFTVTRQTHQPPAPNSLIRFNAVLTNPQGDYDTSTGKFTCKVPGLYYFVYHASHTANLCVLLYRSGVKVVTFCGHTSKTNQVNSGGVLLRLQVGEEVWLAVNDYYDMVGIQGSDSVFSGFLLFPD
Procedure: Subsequently the plates were washed and blocked with ELISA blocking buffer (PBS containing 1% BSA). […] A slow kinetic substrate solution of tetramethylbenzidine (TMB) was added and the optical density (OD) of the color was measured at 650 nm. The data representing detectable binding of antibodies over the range of test concentrations was analyzed by one-site binding nonlinear regression analysis using GraphPad Prism software.
Experiment [3] concerns the target T2, recombinant human soluble ECD of CD64/FCGRIA (human, UniProt P12314 16-292).
T2 construct: extracellular domain; also called FcγRI
Put plainly: ELISA: plate coated with recombinant human CD64/FCGRIA ECD, antibody titrated, HRP goat anti-human Fc, OD650.
Procedure: FcγRI binding was evaluated using an enzyme linked immunoassay (ELISA). Briefly, 96-well ELISA plates were coated with recombinant human soluble ECD of CD64/FCGRIA (Sino Biological, Inc. Beijing, China) in 1×PBS (pH7.4) coating buffer. Subsequently the plates were washed and blocked with ELISA blocking buffer. […] After washing to remove unbound antibodies, the bound antibodies were detected with horseradish peroxidase (HRP) conjugated goat anti-human Fc-specific polyclonal antibody (Jackson ImmunoResearch, West Grove, Pa.). After washing to remove the unbound detection antibody, a slow kinetic substrate solution of tetramethylbenzidine (TMB) was added to the wells where color develops in proportion to the amount of testing samples. The optical density (OD) of the color was measured at 650 nm and was used for determination of the amount of testing samples bound to FcγRI. Detectable binding of antibodies over the range of test concentrations was analyzed using the one-site binding, nonlinear regression analysis with GraphPad Prism.

The target of experiment [4] is recombinant human FcRn (Sino Biological) (human, UniProt P55899 24-297; P61769 21-119). Kind of experiment: ELISA at pH 6.0: plate coated with recombinant human FcRn, antibody titrated, HRP goat anti-human Fc, OD650.
Sequence of recombinant human FcRn (Sino Biological) (P55899 24-297 limits assumed, chain 1 of 2): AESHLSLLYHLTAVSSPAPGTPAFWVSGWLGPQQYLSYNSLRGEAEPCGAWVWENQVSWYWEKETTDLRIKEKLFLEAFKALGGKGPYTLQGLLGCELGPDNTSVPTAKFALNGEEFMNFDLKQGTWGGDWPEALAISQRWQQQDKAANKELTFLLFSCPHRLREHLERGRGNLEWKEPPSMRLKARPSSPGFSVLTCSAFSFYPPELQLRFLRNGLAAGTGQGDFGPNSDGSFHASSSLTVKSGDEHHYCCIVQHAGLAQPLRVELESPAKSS
Sequence of recombinant human FcRn (Sino Biological) (P61769 21-119 limits assumed, chain 2 of 2): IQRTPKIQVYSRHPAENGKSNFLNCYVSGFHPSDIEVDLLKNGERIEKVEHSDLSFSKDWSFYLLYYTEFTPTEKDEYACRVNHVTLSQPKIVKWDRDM
Procedure: FcRn binding was evaluated using an enzyme linked immunoassay (ELISA). Briefly, 96-well ELISA plates were coated with of recombinant human FcRn (Sino Biological, Inc, Beijing, China) in 1×PBS (pH 6.0) coating buffer. Subsequently, the plates were washed and blocked with ELISA blocking buffer. […] After washing to remove unbound antibodies, the bound antibodies were detected with horseradish peroxidase (HRP) conjugated goat anti-human Fc-specific polyclonal antibody (Jackson ImmunoResearch, West Grove, Pa.). After washing to remove unbound detection antibody, a slow kinetic substrate solution of tetramethylbenzidine (TMB) was added to the wells where color develops in proportion to the amount of testing samples. The optical density (OD) of the color was measured at 650 nm and was used for determination of the amount of testing samples bound to FcRn. Detectable binding of antibodies over the range of test concentrations was analyzed using the one-site binding, nonlinear regression analysis with GraphPad Prism.

T1 sequence (P08637 17-208): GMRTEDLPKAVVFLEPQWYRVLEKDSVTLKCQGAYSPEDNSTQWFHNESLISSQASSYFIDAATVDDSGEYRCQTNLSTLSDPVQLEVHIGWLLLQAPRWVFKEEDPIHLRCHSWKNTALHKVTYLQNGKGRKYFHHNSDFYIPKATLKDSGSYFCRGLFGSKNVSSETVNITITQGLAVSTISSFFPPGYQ
T2 sequence (P12314 16-292): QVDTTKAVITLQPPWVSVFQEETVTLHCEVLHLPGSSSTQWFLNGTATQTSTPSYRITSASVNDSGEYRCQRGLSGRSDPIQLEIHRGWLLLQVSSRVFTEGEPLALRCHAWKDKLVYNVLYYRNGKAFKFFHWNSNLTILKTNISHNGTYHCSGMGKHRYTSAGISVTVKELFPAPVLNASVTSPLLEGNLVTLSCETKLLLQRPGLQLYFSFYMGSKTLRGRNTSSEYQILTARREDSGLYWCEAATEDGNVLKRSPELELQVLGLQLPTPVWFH

B1: Anti-EGFR Ab No. 1 L234A, L235A, L328C (antibody, human IgG1, kappa, L234A L235A)
heavy: QVQLQESGPGLVKPSETLSLTCTVSGGSVSSGDYYWTWIRQSPGKGLEWIGHIYYSGNTNYNPSLKSRLTISIDTSKTQFSLKLSSVTAADTAIYYCVRDRVTGAFDIWGQGTMVTVSSASTKGPSVFPLAPSSKSTSGGTAALGCLVKDYFPEPVTVSWNSGALTSGVHTFPAVLQSSGLYSLSSVVTVPSSSLGTQTYICNVNHKPSNTKVDKKVEPKSCDKTHTCPPCPAPEAAGGPSVFLFPPKPKDTLMISRTPEVTCVVVDVSHEDPEVKFNWYVDGVEVHNAKTKPREEQYNSTYRVVSVLTVLHQDWLNGKEYKCKVSNKACPAPIEKTISKAKGQPREPQVYTLPPSREEMTKNQVSLTCLVKGFYPSDIAVEWESNGQPENNYKTTPPVLDSDGSFFLYSKLTVDKSRWQQGNVFSCSVMHEALHNHYTQKSLSLSPGK
light: not shown
notes: Fc variant; wild-type light chain; also called Anti-EGFR Mab No. 1 triple mutant; triple mutation L234A, L235A, and L328C
As for B1, the binding result in experiment [1] is “no binding (tested: 80 ug/ml)”; in experiment [2], “binds”; in experiment [3], “no binding (tested: 30 ug/ml)”; in experiment [4], “binds”.

The values are drawn from patent US20230165967A1 (TAE LIFE SCIENCES, published 2023).
